From patent US10759836B2, “Cancer vaccine compositions and methods of use thereof” (UNIVERSITY OF WASHINGTON, priority 2014, dated 2020)
“Also recorded” adds a separate entry of the source.

Tests used:
[1] = tested on: MC-38 cells (murine adenocarcinoma); assay: MC-38 tumor implant model: tumor volume after peptide vaccination; assay type: in vivo, C57Bl/6 mice; settings: for effect on tumor volume: MC-38 tumor implant in C57Bl/6 mice, vs CFA/IFA; for peptide efficacy, MC-38 + B6 (Tumor Implant): summary table, Yes/No
Method: MC-38 tumor implant in-vivo experiments. At 6 weeks of age, mice were immunized in CFA/IFA, PBS, and vaccine groups. Each group received subcutaneous injections (100 ul PBS, 50 ul CFA with 50 ul PBS, 50 ug per peptide with 50 ul CFA) once every 10-14 days for a total of three doses. See Table 9 for peptides included in vaccine compositions. CFA was replaced with IFA for the second and third vaccines. Two weeks after the final vaccine, we subcutaneously implanted 4×10^4 MC-38 cells (murine adenocarcinoma), and measured tumor growth with Vernier calipers 2-3 times per week. Tumor volume was calculated as length×width×height×π/6, which is the standard volume calculation of an ellipsoid. Mice were sacrificed when tumor size in control mice reached greater than 1000 mm^3.

[2] = tested on: small bowel tumor burden in APCmin mice; assay: APCmin mouse model: small bowel tumor count after peptide vaccination; assay type: in vivo; settings: for effect on small bowel tumor burden (tumor count): APCmin mice, vs CFA/IFA control, 50 ug per peptide s.c.; for peptide efficacy, APCmin Small Bowel (Spontaneous): summary table, Yes/No
Method: (§1) Offspring from APCmin were genotyped by PCR for the presence of the Min mutation using primers as follows: Wild-Type: 5′-[…]-3′ (SEQ ID NO: 46), Common 5′-[…]-3′ (SEQ ID NO: 47), Mutant: 5′-[…]-3′ (SEQ ID NO: 48). Both male and female mice testing positive for the Min mutation were included in the study and randomized into groups.
(§2) At 4-6 weeks of age, mice were immunized in CFA/IFA, PBS, and vaccine groups. Each group received subcutaneous injections (100 ul PBS, 50 ul CFA with 50 ul PBS, 50 ug per peptide with 50 ul CFA) once every 7-10 days for a total of three doses and one booster was given 4-5 weeks after the third vaccine. See Table 5 for peptides included in vaccine compositions. CFA was replaced with IFA after the first vaccine. All mice were sacrificed at 14 to 17 weeks of age, the gastrointestinal tracts were collected and tumors counted.

[3] = tested on: colon tumor burden in APCmin mice; assay: APCmin mouse model: colon tumor count after peptide vaccination; assay type: in vivo; settings: for effect on colon tumor burden (tumor count): APCmin mice, vs CFA/IFA control, 50 ug per peptide s.c.; for peptide efficacy, APCmin Colon (Spontaneous): summary table, Yes/No
Method: as §1, §2

[4] = tested on: colon tumor burden in AOM mice (Azoxymethane + FVB); assay: AOM mouse model: colon tumor count after peptide vaccination; assay type: in vivo; settings: for effect on colon tumor burden (tumor count): AOM treated FVB mice, vs control group (CFA/IFA; PBS for IGF1R, PRL3, RCAS1); for peptide efficacy, Azoxymethane + FVB (Induced): summary table, Yes/No
Method: AOM mouse in-vivo experiments. At 6 weeks of age, FVB mice were immunized in CFA/IFA, PBS, and vaccine groups. Each group received subcutaneous injections (100 ul PBS, 50 ul CFA with 50 ul PBS, 50 ug per peptide with 50 ul CFA) once every 10-14 days for a total of three doses and a booster was given every 4-5 weeks after the third vaccine. See Table 7 for peptides included in vaccine compositions. CFA was replaced with IFA after the first vaccine. Seven days after the third vaccine, mice were injected with Azoxymethane (AOM) at 10 mg/kg, twice weekly for 6 weeks. At 26 weeks of age, all mice were sacrificed and tumors in the colon were counted.

[5] = tested on: small bowel tumor burden in APCmin mice; assay: APCmin survival study: small bowel tumor count at sacrifice; assay type: in vivo; settings: boosters every 4-5 weeks, vs CFA/IFA
Method: At 4-6 weeks of age, mice were immunized with CFA/IFA, PBS, and vaccine groups. Each group received subcutaneous injections (100 ul PBS, 50 ul CFA with 50 ul PBS, 50 ug per peptide with 50 ul CFA) once every 7-10 days for a total of three doses and a booster vaccine was given every 4-5 weeks after the third vaccine. See Table 6 for peptides included in vaccine compositions. CFA was replaced with IFA after the first vaccine. […] At sacrifice, small intestines were collected and small bowel tumors counted.

Molecule	effect on tumor volume [1]	peptide efficacy, MC-38 + B6 (Tumor Implant) [1]	effect on small bowel tumor burden (tumor count) [2]	peptide efficacy, APCmin Small Bowel (Spontaneous) [2]	effect on colon tumor burden (tumor count) [3]	peptide efficacy, APCmin Colon (Spontaneous) [3]	effect on colon tumor burden (tumor count) [4]	peptide efficacy, Azoxymethane + FVB (Induced) [4]	effect on small bowel tumor burden (tumor count) [5]
VCP: peptide vaccine of VCP #18, #19, #20, #23, 50 ug per peptide with CFA/IFA (with CFA/IFA adjuvant, peptide vaccine of VCP #18, #19, #20, #23, 50 ug per peptide with CFA/IFA) chain 1: IRMNRVVRNNLRVRLGDVISI chain 2: LQLFRGDTVLLKGKKRR chain 3: YFLEAYRPIRKGDIFLVRG chain 4: VEFKVVETDPSPYCIVAPDT	does not significantly inhibit	No	vaccine efficacy; also recorded: significantly inhibits	Yes	vaccine efficacy; also recorded: significantly inhibits	Yes	lack of VCP vaccine efficacy; also recorded: does not significantly inhibit	No	–
RCAS1: peptide vaccine of RCAS1 #13, #14, #21, #30, #31, 50 ug per peptide with CFA/IFA (with CFA/IFA adjuvant, peptide vaccine of RCAS1 #13, #14, #21, #30, #31, 50 ug per peptide with CFA/IFA) chain 1: EPDYFKDMTPTIRKTQKIVI chain 2: DYFKDMTPTIRKTQKIVIKKR chain 3: LFKFCTCLATVFSFLKRLIC chain 4: GFSSRLAATQDLPFIHQSSELGD chain 5: EEEDAAWQAEEVLRQQKLADR	significantly inhibits	Yes	vaccine efficacy; also recorded: significantly inhibits	Yes	lack of RCAS1 vaccine efficacy; also recorded: does not significantly inhibit	No	lack of RCAS1 vaccine efficacy; also recorded: do not significantly inhibit	No	–
PRL3: peptide vaccine of PRL-3 #1, #2, #3, #4, #29, 50 ug per peptide with CFA/IFA (with CFA/IFA adjuvant, peptide vaccine of PRL-3 #1, #2, #3, #4, #29, 50 ug per peptide with CFA/IFA) chain 1: VSYKHMRFLITHNPTNATL chain 2: FIEDLKKYGATTVVRVCEVTY chain 3: PCVAGLGRAPVLVALALIES chain 4: MKYEDAIQFIRQKRRGAIN chain 5: VEDWLSLVKAKFCEA	significantly inhibits	Yes	vaccine efficacy; also recorded: significantly inhibits	Yes	lack of PRL3 vaccine efficacy; also recorded: does not significantly inhibit	No	lack of PRL3 vaccine efficacy; also recorded: does not significantly inhibit	No	does not significantly inhibit
